Broadly, the Kd is the concentration at which binding is half-saturated. Read a high Kd as lower affinity.

Non-standard residues stand in square brackets, D forms with d. No end group written: not given here.

The target in this assay is human carbonic anhydrase II (human, UniProt P00918 1-260). Put plainly: SPR. For orientation: In SPR one partner is held on a chip, and binding of the other changes the refractive index at the surface.

As for [dF][dP][dL][dS][dK] [fplsk], the dissociation constant (Kd) stood at 5.8 µM.

(Values after PMC4224607 (Chemical communications (Cambridge, England), 2014).)
